The values below come from article PMC10226596, “The ethylene-responsive transcription factor PpERF9 represses PpRAP2.4 and PpMYB114 via histone deacetylation to inhibit anthocyanin biosynthesis in pear”.

For data set [1], the target named is T1, PpRAP2.4 (Pyrus (pear, 'Hongzaosu'?), UniProt A0A5N5HQM7 1-356). The data set can be described thus: EMSA; 3 ug protein; cold competitor 10-, 50-, 200-fold; LightShift Chemiluminescent EMSA Kit (Thermo Scientific); buffer, salt, pH and temperature not stated. To be noted: protein: recombinant; tags: His (pET32a); label: 3' biotin (hot probe); blunt. For orientation: Mobility shift assays separate free from complexed probe on a gel.
T1 sequence (A0A5N5HQM7 entry or part of it): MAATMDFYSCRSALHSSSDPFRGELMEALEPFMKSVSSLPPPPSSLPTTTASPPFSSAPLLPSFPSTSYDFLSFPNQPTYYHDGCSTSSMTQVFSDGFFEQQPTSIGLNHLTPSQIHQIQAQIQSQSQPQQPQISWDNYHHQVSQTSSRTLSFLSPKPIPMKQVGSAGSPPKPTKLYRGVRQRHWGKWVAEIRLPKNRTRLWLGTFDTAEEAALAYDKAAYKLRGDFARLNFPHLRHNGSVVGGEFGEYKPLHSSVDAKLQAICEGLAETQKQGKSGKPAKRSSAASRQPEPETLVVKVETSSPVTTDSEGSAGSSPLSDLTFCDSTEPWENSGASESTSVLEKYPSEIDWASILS

In data set [2] the target is T1, PpRAP2.4. The data set can be described thus: EMSA; cold competitor 50-, 100-, 200-fold; LightShift Chemiluminescent EMSA Kit (Thermo Scientific); buffer, salt, pH and temperature not stated. As to conditions: protein: recombinant; tags: His (pET32a); label: 3' biotin (hot probe); blunt.

B1: ProMYB114-probe (dsDNA)
DNA 1: GCTTGCCGTCTTTGTCGTCTCCGGCGCCGCCATCTACATCTGCTTCCAGGTTCAAC
DNA 2: GTTGAACCTGGAAGCAGATGTAGATGGCGGCGCCGGAGACGACAAAGACGGCAAGC
On to B1, for which the binding result with PpRAP2.4 [1] was “binds”.

B2: ProACS1-probe (dsDNA)
DNA 1: GAAAAATAGAGGAGAAAAATGGCCGACAAAATTAGTTGTGGCTACTAGAGTCAAGAAG
DNA 2: CTTCTTGACTCTAGTAGCCACAACTAATTTTGTCGGCCATTTTTCTCCTCTATTTTTC
Consider B2, for which the binding result with PpRAP2.4 [2] was “binds”.
